Data set [1] addresses Complement component C7 (human).
In data set [2] the target is Complement component C9 (human).
In the next data set the target is T1, Ac-RQAR-AMC.
T1 chain: RQAR

Another data set has as its target T2, Complement C2 (human).
T2 chain: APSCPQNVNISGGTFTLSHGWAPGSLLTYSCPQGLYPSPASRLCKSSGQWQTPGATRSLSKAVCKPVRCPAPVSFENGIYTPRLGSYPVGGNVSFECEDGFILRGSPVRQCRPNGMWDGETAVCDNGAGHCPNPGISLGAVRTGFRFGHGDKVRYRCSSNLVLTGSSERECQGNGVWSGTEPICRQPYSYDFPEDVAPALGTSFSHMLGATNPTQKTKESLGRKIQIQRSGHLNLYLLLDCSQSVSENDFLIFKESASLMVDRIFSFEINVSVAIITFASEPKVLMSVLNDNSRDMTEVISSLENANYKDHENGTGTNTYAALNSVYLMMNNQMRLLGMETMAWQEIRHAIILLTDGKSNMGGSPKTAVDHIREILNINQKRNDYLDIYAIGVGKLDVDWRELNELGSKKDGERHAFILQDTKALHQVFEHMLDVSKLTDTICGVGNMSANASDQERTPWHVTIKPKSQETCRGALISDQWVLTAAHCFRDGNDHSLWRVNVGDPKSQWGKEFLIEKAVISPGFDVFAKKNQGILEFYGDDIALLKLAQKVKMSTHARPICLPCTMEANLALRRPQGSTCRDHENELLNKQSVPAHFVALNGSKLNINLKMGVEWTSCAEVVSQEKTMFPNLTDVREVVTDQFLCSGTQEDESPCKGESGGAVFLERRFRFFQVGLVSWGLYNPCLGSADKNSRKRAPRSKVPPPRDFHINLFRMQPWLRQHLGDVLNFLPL

Data set [3] has as its target Complement component C6 (human).
Data set [4] deals with Complement component C8 (human).
The target in another data set is T3, Complement C4 (human).
T3 chain 1: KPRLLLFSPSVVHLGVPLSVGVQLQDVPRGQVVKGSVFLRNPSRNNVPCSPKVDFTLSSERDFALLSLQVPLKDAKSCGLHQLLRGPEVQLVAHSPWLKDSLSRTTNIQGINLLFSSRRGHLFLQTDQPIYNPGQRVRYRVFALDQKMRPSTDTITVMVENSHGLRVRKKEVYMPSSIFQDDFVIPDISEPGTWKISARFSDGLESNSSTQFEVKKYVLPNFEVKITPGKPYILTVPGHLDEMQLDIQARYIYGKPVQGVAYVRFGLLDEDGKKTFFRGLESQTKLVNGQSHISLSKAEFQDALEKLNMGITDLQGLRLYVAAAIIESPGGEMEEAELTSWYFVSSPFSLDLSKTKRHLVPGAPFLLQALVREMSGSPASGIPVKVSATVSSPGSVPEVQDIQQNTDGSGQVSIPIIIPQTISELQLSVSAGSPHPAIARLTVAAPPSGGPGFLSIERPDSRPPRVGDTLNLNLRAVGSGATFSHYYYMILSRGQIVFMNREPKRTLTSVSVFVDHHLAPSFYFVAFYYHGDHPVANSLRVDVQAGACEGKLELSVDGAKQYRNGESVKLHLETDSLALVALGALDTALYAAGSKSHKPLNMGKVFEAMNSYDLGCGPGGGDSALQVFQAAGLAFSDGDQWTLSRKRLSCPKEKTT
T3 chain 2: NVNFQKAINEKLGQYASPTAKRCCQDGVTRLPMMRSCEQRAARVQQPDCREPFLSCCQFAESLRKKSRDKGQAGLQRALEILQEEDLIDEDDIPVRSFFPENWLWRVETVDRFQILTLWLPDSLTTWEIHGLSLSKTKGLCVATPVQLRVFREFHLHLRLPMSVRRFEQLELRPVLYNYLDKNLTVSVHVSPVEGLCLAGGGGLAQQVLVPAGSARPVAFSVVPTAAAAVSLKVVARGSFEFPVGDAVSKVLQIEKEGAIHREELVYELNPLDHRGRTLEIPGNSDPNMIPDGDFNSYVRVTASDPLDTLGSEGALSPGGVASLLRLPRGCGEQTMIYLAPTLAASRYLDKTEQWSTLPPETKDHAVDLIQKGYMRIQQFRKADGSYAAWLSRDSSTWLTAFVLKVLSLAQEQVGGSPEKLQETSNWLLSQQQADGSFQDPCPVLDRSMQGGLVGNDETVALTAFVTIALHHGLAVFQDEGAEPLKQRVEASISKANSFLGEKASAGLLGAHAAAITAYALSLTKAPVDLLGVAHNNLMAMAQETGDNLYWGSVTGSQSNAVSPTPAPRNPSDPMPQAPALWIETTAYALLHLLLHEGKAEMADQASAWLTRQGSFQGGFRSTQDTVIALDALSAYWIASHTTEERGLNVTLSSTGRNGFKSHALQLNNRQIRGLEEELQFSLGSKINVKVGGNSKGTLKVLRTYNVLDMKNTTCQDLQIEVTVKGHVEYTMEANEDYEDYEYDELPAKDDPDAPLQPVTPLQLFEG
T3 chain 3: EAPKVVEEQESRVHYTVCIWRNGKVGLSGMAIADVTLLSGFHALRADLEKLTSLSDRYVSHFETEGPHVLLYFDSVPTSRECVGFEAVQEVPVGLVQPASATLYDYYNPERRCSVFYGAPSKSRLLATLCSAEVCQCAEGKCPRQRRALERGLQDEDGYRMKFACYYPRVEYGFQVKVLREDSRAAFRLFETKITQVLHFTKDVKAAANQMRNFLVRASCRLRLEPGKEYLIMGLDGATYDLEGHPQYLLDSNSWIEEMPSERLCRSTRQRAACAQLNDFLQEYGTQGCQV

For a further data set, the target named is T4, Ac-SLGR-AMC.
T4 chain: SLGR

The next data set concerns the target T5, Ac-GLAR-AMC.
T5 chain: GLAR

Residue numbers refer to the chain shown, from its start. Names and notes keep the numbering of the source.

Complement C5 (human), sequence (chain, as listed by the source, chain 1 of 2): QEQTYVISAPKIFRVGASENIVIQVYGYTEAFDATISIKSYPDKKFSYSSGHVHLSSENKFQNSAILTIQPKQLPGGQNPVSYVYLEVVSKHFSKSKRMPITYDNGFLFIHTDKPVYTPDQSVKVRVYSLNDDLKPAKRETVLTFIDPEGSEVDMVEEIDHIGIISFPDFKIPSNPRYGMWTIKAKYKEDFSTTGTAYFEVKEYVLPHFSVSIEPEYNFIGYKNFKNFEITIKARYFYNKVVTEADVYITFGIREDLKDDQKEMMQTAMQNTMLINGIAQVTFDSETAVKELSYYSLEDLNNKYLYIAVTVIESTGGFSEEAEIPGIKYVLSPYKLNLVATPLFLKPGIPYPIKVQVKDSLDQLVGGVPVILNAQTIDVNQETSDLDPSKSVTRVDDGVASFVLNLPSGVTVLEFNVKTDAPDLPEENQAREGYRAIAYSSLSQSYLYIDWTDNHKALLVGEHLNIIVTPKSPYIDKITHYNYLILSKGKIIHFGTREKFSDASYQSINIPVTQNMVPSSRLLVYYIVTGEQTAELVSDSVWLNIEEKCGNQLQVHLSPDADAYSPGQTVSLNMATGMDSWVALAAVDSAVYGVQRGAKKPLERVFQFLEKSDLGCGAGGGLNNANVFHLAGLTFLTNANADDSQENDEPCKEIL
Complement C5 (human), sequence (chain, as listed by the source, chain 2 of 2): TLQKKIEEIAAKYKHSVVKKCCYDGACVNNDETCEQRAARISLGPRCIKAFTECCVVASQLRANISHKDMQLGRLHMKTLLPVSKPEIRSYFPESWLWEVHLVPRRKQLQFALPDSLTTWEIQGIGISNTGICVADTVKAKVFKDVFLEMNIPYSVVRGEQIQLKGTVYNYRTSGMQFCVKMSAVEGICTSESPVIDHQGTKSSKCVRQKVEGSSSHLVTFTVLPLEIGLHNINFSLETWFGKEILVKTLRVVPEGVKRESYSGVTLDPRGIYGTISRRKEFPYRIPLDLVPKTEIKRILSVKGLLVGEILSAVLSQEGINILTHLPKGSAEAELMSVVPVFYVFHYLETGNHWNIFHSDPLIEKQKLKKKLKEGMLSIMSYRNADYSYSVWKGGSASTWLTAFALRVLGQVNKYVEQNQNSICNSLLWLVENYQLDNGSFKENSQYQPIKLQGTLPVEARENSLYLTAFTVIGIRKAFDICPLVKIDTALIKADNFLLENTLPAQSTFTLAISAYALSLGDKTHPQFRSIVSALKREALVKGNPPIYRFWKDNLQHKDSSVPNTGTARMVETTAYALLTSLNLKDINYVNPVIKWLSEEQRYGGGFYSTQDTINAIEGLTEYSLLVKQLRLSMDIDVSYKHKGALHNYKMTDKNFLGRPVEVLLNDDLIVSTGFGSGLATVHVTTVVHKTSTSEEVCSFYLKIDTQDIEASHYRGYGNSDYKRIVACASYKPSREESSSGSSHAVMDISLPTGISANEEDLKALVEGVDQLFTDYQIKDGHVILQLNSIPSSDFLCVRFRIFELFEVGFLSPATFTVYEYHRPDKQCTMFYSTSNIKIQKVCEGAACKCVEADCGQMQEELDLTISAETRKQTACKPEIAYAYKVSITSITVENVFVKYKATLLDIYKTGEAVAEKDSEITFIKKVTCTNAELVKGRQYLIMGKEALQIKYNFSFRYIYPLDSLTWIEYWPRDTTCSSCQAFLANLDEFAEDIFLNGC
Complement component C7 (human), sequence (chain, as listed by the source): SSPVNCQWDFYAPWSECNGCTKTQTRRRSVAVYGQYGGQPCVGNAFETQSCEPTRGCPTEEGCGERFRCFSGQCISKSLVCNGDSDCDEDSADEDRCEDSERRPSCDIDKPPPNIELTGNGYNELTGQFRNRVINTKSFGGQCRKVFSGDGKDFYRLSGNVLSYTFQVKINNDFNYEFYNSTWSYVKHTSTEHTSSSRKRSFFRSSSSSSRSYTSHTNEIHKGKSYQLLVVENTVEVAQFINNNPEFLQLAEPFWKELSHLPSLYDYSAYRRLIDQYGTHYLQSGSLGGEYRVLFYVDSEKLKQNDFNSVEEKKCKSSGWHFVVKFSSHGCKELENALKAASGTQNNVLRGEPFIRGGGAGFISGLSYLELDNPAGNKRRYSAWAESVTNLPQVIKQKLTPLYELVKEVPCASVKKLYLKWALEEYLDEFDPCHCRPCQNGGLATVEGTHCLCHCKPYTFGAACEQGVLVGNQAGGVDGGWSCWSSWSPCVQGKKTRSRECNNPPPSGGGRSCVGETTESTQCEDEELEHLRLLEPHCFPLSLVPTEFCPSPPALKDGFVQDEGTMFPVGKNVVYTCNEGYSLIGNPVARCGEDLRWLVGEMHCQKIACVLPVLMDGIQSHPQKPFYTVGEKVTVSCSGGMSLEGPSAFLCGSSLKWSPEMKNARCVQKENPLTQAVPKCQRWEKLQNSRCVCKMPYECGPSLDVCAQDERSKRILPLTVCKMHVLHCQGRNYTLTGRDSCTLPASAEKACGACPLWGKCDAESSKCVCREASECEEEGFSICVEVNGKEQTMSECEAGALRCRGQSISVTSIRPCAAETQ
Complement component C6 (human), sequence (chain, as listed by the source): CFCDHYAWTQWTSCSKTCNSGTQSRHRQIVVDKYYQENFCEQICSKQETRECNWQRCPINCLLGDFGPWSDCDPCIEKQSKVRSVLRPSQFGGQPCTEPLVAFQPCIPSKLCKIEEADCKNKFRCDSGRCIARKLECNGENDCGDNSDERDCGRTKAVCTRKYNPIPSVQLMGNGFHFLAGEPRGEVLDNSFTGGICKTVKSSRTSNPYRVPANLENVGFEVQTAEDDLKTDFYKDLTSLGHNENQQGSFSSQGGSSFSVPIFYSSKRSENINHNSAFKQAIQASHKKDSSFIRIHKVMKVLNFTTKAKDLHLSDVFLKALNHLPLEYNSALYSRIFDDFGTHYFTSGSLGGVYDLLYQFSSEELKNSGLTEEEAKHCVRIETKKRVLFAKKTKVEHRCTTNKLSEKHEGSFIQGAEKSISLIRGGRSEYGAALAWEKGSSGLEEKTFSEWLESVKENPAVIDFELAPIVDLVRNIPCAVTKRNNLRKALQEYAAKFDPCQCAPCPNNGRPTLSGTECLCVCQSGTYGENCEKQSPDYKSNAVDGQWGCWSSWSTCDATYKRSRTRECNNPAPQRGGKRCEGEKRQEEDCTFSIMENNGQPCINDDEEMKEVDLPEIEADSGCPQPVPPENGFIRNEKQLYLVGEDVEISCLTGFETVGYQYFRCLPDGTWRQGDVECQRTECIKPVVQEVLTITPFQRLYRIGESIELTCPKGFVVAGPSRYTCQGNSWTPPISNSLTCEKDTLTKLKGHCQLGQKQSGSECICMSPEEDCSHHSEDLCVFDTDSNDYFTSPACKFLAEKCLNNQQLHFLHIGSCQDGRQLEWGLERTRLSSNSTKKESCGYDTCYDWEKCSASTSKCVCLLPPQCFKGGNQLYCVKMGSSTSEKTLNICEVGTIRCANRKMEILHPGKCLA
Complement component C9 (human), sequence (chain, as listed by the source): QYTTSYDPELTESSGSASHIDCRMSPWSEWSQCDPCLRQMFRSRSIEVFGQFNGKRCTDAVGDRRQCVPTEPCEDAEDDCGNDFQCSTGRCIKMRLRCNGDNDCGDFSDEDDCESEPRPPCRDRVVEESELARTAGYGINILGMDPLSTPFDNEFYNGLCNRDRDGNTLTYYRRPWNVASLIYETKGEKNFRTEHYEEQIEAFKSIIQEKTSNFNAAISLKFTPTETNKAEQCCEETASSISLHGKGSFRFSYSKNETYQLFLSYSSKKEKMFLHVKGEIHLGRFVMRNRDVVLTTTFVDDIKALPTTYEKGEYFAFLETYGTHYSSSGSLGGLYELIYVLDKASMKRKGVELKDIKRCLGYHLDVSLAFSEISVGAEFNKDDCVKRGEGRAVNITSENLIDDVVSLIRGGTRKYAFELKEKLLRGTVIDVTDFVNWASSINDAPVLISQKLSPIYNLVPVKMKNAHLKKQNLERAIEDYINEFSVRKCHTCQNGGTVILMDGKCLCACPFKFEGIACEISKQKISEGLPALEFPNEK

B1: wildtype MT-SP1 protease domain (CB200) (protein)
chain: VVGGTDADEGEWPWQVSLHALGQGHICGASLISPNWLVSAAHCYIDDRGFRYSDPTQWTAFLGLHDQSQRSAPGVQERRLKRIISHPFFNDFTFDYDIALLELEKPAEYSSMVRPICLPDASHVFPAGKAIWVTGWGHTQYGGTGALILQKGEIRVINQTTCENLLPQQITPRMMCVGFLSGGVDSCQGDSGGPLSSVEADGRIFQAGVVSWGDGCAQRNKPGVYTRLPLFRDWIKENTGV
For B1, the “hemolysis (OD415) by protease-preincubated purified complement protein added back to the corresponding depleted sera” value is listed as “showed no decreased hemolysis as compared to normal sera or the no protease control” in data set [1]; “showed no decreased hemolysis as compared to normal sera or the no protease control” in data set [2]; “resulted in an inhibition of hemolysis as assessed by a reduced OD415 absorbance to levels comparable to the depleted sera control” with Complement C2 (human); “showed no decreased hemolysis as compared to normal sera or the no protease control” in data set [3]; “showed no decreased hemolysis as compared to normal sera or the no protease control” with Complement C3 (human); “showed no decreased hemolysis as compared to normal sera or the no protease control” in data set [4]. The “hemolysis (OD415) by protease-preincubated purified complement protein added back to the corresponding depleted sera” value with Complement C4 (human), in the data set with Complement C1q (human) and with Complement C5 (human) was “showed no decreased hemolysis as compared to normal sera or the no protease control” each time. For the same protein, the kcat/Km (specificity constant), fluorogenic peptide cleavage with Ac-RQAR-AMC is 1.9e+06 M⁻¹ s⁻¹; with Ac-SLGR-AMC, 20000 M⁻¹ s⁻¹; with Ac-GLAR-AMC it was 64000 M⁻¹ s⁻¹. The Fraction of Hemolysis (protease-incubated purified complement protein added back to depleted sera) was determined as 0 in the data set with Complement C2 (human), 0.00834 with Complement C3 (human), 0.97 with Complement C4 (human) and 0.888 with Complement C5 (human). Besides, the “cleavage in 90% human plasma by Western blot” value with Complement C2 (human) is on record as “cleaved C2 in human plasma in a dose-dependent manner”; with Complement C3 (human) it was “none of the tested proteases cleaved C3 in human plasma as compared to the no protease control even at the highest concentration of protease (2000 nM)”. Also, the “fraction C5b-9 generated, Total Complement System Screen (classical and MBL pathways), 1 uM protease in human plasma” value with Complement C2 (human) is “the fraction C5b-9 generated upon complement activation induced by the classical and MBL pathways was almost completely inhibited”. In addition, the kcat/Km (specificity constant) of cleavage of full length C2, in gel kinetics (SDS-PAGE densitometry time course) in the data set with Complement C2 (human) was found to be 19500 M⁻¹ s⁻¹.

B2: modified MT-SP1 CB387 (Y146D/Q175W/K224L) protease domain (protein)
chain: B1 chain with Y141D, Q169W, K221L
Regarding B2, the “C3 Western blot of samples of the alternative hemolysis assay (human plasma)” value (“C3 Western blot” below) with Complement C3 (human) is on record as “cleave C3 as assessed by decreased C3 product as compared to the no protease treated plasma sample”.

B3: modified MT-SP1 CB349 (I41D/Y146D/K224F) protease domain (protein)
chain: B1 chain with I26D, Y141D, K221F
Regarding B3, in the data set with Complement C3 (human), the “C3 Western blot” value was “cleave C3 as assessed by decreased C3 product as compared to the no protease treated plasma sample”.

B4: modified MT-SP1 CB331 (I41D/Y146D/K224L) protease domain (protein)
chain: B1 chain with I26D, Y141D, K221L
As to B4, the “C3 Western blot” value in the data set with Complement C3 (human) is listed as “cleave C3 as assessed by decreased C3 product as compared to the no protease treated plasma sample”.

B5: modified MT-SP1 CB42 (Y146E) protease domain (protein)
chain: B1 chain with F92W, Y141E
Take B5: the kcat/Km (specificity constant), fluorogenic peptide cleavage in the data set with Ac-RQAR-AMC turned out to be 1.8e+06 M⁻¹ s⁻¹; with Ac-SLGR-AMC, 59000 M⁻¹ s⁻¹; with Ac-GLAR-AMC it was 63000 M⁻¹ s⁻¹. Also, the Fraction of Hemolysis (protease-incubated purified complement protein added back to depleted sera) with Complement C2 (human) was found to be 0.0714; in the data set with Complement C3 (human), 0.122; with Complement C4 (human), 1.04; with Complement C5 (human) it was 1.02. For the same protein, the kcat/Km (specificity constant) of cleavage of full length C2, in gel kinetics (SDS-PAGE densitometry time course) in the data set with Complement C2 (human) is 36000 M⁻¹ s⁻¹.

B6: modified MT-SP1 CB155 (Y146D/K224F) protease domain (protein)
chain: B1 chain with Y141D, K221F
For the protein B6, the kcat/Km (specificity constant), fluorogenic peptide cleavage is 91000 M⁻¹ s⁻¹ in the data set with Ac-RQAR-AMC, 3700 M⁻¹ s⁻¹ in the data set with Ac-SLGR-AMC and 3500 M⁻¹ s⁻¹ with Ac-GLAR-AMC. For the same protein, the Fraction of Hemolysis (protease-incubated purified complement protein added back to depleted sera) with Complement C2 (human) is -0.00104; with Complement C3 (human) it was 0.072; in the data set with Complement C4 (human) it was 0.944; in the data set with Complement C5 (human) it was 0.943. Besides, the kcat/Km (specificity constant) of cleavage of full length C2, in gel kinetics (SDS-PAGE densitometry time course) with Complement C2 (human) worked out at 72000 M⁻¹ s⁻¹.

The record behind these values is patent US20070093443.
